Measurements published in the DeepSol protein solubility set.

Assay: soluble on expression in E. coli; label from the status in PepcDB or PDB records

Sequence | soluble on expression in E. coli
MGSDKIHHHHHHMLDPRSVPFAAQIHPQARPARRLTWDSREAGPDTAFVALPGEKMHGNRFVERALAAGAPFVLTDLDVPRAVRVDDARGALFAWARSERAKNPLVVGITGSAGKTTAKSYAAAALDAHFMPVFNTMPAIACFLVQYGASQKPLVVEMGIDHIGEMAELMDLVRPDVGVVTTIGPAHLEQFGMVETIAHEKGQILTARRALVGSQAAAFFPKAQFPHVDSYGFGDVTFRGEGLELSPQAARFRFGGMGVILPLASRVQAEAAVLGMVLAREAGIALADAAVRMSAVEVPGGRYRLHPGRFTVIDDAYNASPVAVRAALDALHALKPEGEVGRRISVLGRMLELGPTERELHAEVGSYAREQADLTYGVGEFAQELGERAFATVPELLADLLNEVRDGDIVLVKASRGISLTPEQRAVTGVGLDVVVEALLDQRDR | not soluble
MGREFIPLFEDWAATYDQTVQGLDIQYKEAFRGYDHILDAIVRKSGTHVLEFGPGTGNLTAKLLDAGKTVFGIEPSPAMRKLASDKLSGRTEIVDGDFLTFPEPPFQADTIVSSYAFHHLTDEEKRAAIKQYGKYLHLHDKIVFADTVFENAQAYQQAIDKARSQGFYQLANDLETEHYPTLDALKEMFTAEGFAVRFTQQNDFVWIMEAIKRLEHHHHHH | not soluble
ENGRYEYIVIGSEAAGVGLVRELTAAGKKVLAVDKSKEKIELLEDEGFDAVIADPTDESFYRSLDLEGVSAVLITGSDDEFNLKILKALRSVSDVYAIVRVSSPKKKEEFEEAGANLVVLVADAVKQAFMDKIKKMETL | not soluble
MNNVSEERVAEMIWDAVSEGATLKDVHGIPQDMMDGLYAHAYEFYNQGRLDEAETFFRFLCIYDFYNPDYTMGLAAVCQLKKQFQKACDLYAVAFTLLKNDYRPVFFTGQCQLLMRKAAKARQCFELVNERTEDESLRAKALVYLEALKTAETEQHSEQEKELEHHHHHH | soluble
MKIAITGATGFVGQRLVERLQAEGHELRILSQRPTVAQQLTGCQVFDTATETSWLAALEGADAVVNLAGEPIAEQRWTPAQKQRLKNSRVQTTRALVTAITAATQKPQVLVTASAIGYYGTSETAQFTEESAAGQDYLAEICQAWEQEAQAVTVSGTRLVTLRIGIVVGPGGAIGKMLGPFKLFAGGPIGSGRQWVSWIQREDLVSLILEAIANPSYQGTYNATAPQAVRMADLSATLGEVLQRPSWLPVPAFALEALLGEGALLVLEGQQVLPKRLEAAGFQFRYPDLKSALQQFLPLEHHHHHH | not soluble
MGSDKIHHHHHHMGLYDLLDAEGKDDQKGKSPGVAVGVVADNQDPEGMGRVKVRFPWKDDADESTWARVVTPMAGKGRGLWFLPEVGDEVLVAFDHGDVQHPYVLGSLWNGTDTPPGDNGDGNNNIRKITSRSGHELVFDDTSGAEKVVIRTKAGHAITLDDAGGGEKIEIKDKSGSNKLVIDSAQNSIGIESSMKLTIKGQMVEIQSDANMTLKAGAVMTIQGSMVKIN | not soluble
MKLKAMYSFLSDDLAAVEEELERTVRSEYGPLGEAALHLLQAGGKRIRPVFVLLSARFGHYDFERIKHVAVALELIHMASLVHDDVIDDADVRRGRPTIKARWSNRFAMYTGDYLFARSLERMAELDSPRAHQVLAKTIVEVCHGEIEQIKDKYRFDQPLRTYLRRIRRKTALLIAASCQLGALAAGAPEAVANRLYWFGHCVGMSFQITDDILDFTGTEEQLGKPAGSDLQQGNVTLPVLYALCDEQVRAKITAVNADTDAEEMAAVLAAIKQTDAIERSYALSDRYLEKALRLLGELPANEARTLLHDLALYIGKRDY | not soluble
MGSDKIHHHHHHLSADHNAFRRALTERWGKAFGEPVIHEDPRTRSLCFGAPGVQSSMRTSDPLELDLPYTRAMMSFQLFCPDPKDILIVGLGGGSLSKYCFHKFPSARVTTVEIDERVIALRDAFFIPPESERFRIVHADAAAYLPDKVGLADVILLDGFDASGLPASLSSQYFYDCCHAALRDEGVLVANLLSSDPRLGAHLDRIHRACHGKLFRTMARREGNTIAIGIRQATWPGWPDLYARAEAITASTGLDLCRYVKKMERHHRVEPVSEHPSSDTLAVEQNR | not soluble
MSFFHANQREALNQSLSELQGQINVSFEFFPPRTSEMEDTLWSSIDRLSTLKPKFVSVTYGANSGERDRTHSIIKGIKERTGLEAAPHLTCIDASPTQLRDIAIDYWNSGIRHIVALRGDLPPNSGKPEMYACDLVGLLKDVGDFDISVAAYPEIHPEAKSAQADLINLKRKIDAGANRAITQFFFDVESYLRFRDRCVATGIDVEIVPGILPVSNFKQLQRFATMTNVRVPNWMTSIFDGLDNDPETRKMVGASVAMDMVKILSREGVKDFHFYTLNRAELSYAICHTLGVRP | not soluble
MSENSIRLTQYSHGAGCGCKISPKVLETILHSEQAKFVDPNLLVGNETRDDAAVYDLGNGTSVISTTDFFMPIVDNPFDFGRIAATNAISDIFAMGGKPIMAIAILGWPINKLSPEIAREVTEGGRYACRQAGIALAGGHSIDAPEPIFGLAVTGIVPTERVKKNSTAQAGCKLFLTKPLGIGVLTTAEKKSLLKPEHQGLATEVMCRMNIAGASFANIEGVKAMTDVTGFGLLGHLSEMCQGAGVQARVDYEAIPKLPGVEEYIKLGAVPGGTERNFASYGHLMGEMPREVRDLLCDPQTSGGLLLAVMPEAENEVKATAAEFGIELTAIGELVPARGGRAMVEIR | soluble
MGSDKIHHHHHHMDRIQEMTLFAALAGQTSFTGVARHVGLSTATVTRAVASLESRLGILLVVRTTRNMRLTKAGQRFAEDCRRLLADLSEAENAAAGVHALPAGTLTVTAPQMFGALHVTPVLTRFLSEYPAVDIRAILVDRVVSMLDEGVDVAVRIGALRDSSLTAIRVGSVRRMVCASPVYLTQHGTPRHPDDLQQHATISTSAPERPPHWAFRVDDQDYSVNVASRLSLTSFQASINAALQHWGLTQVPHYQIREHLHNGRLVCVLEDFEIAPEPVHVVYSEGRRGSSRVRSFVDFCVSALREDLQFEAAG | not soluble
FDKLGNSAAIQEMNREVEAAAKRTSPVFLTGEAGSPFETVARYFHKNGTPWVSPARVEYLIDMPMELLQKAEGGVLYVGDIAQYSRNIQTGITFIIGKAERCRVRVIASCSYAAGSDGISCEEKLAGLFSESVVRIPPLS | soluble
MGSDKIHHHHHHMLEQFHIHADLKQQLSTIHEKNKQEAGENAHLIGTKIYKASDNSIIEDAITALLLGKNILLKGPTGSGKTVLAETLSSLFQKPMHSINCSVDLDVEGILGYNTLQTKDGASEVAFVNGPLMKAMKNGHFLYIDEINMAKPETLPLLHGALDYRKMITNPFTQEVVYGDDEYRVIAAINEGYVGTSELNEALKNRFVIIEVPYIQGDTLKELLLAESKLNDVTTIEKFVAFASDLMPLARDGRVSEEAASIRGIIDACDLGVYIPVMRAIERSIIAKLNDETEQMTVRELAESYFFEG | not soluble
MKWDEIGKNIAKEIEKEILPYFGRKDKSYVVGTSPSGDETEIFDKISEDIALKYLKSLNVNIVSEELGVIDNSSEWTVVIDPIDGSFNFINGIPFFAFCFGVFKNNEPYYGLTYEFLTKSFYEAYKGKGAYLNGRKIKVKDFNPNNIVISYYPSKKIDLEKLRNKVKRVRIFGAFGLEMCYVAKGTLDAVFDVRPKVRAVDIASSYIICKEAGALITDENGDELKFDLNATDRLNIIVANSKEMLDIILDLL | soluble
SMIPDFMSFTSHIDELYESAKKQSGGKVADYIPQLAKFSPDLWGVSVCTVDGQRHSTGDTKVPFCLQSCVKPLKYAIAVNDLGTEYVHRYVGKEPSGLRFNKLFLNEDDKPHNPMVNAGAIVVTSLIKQGVNNAEKFDYVMQFLNKMAGNEYVGFSNATFQSERESGDRNFAIGYYLKEKKCFPEGTDMVGILDFYFQLCSIEVTCESASVMAATLANGGFCPITGERVLSPEAVRNTLSLMHSCGMYDFSGQFAFHVGLPAKSGVAGGILLVVPNVMGMMCWSPPLDKMGNSVKGIHFCHDLVSLCNFHNYDNL | soluble
MNVFQMRDKLKARLKHLDVEFKFDREEETLRIVRIDNHKGVTIKLNAIVAKYEEQKEKIIDEICYYVEEAIAQMGDEVINNVEDIQIMPVIRATSFDKETKEGHAFVLTEHTAETNIYYALDLGKSYRLIDENMLQTLNLTAQQVKEMSLFNVRKLECRYSTDEVKGNIFYFINTNDGYDASRILNTSFLNHIQHQCEGEMLVGVPHQDVLILADIRNKTGYDVMAHLTMEFFTKGLVPITSLSFGYDNGHLEPIFILGKNNKQK | not soluble
MGSDKIHHHHHHMEAAAQFFVESPDVVYGPEAIEAQYEYRTTRVSREGGVLKVHPTSTRFTFRTARQVPRLGVMLVGWGGNNGSTLTAAVLANRLRLSWPTRSGRKEANYYGSLTQAGTVSLGLDAEGQEVFVPFSAVLPMVAPNDLVFDGWDISSLNLAEAMRRAKVLDWGLQEQLWPHMEALRPRPSVYIPEFIAANQSARADNLIPGSRAQQLEQIRRDIRDFRSSAGLDKVIVLWTANTERFCEVIPGLNDTAENLLRTIELGLEVSPSTLFAVASILEGCAFLNGSPQNTLVPGALELAWQHRVFVGGDDFKSGQTKVKSVLVDFLIGSGLKTMSIVSYNHLGNNDGENLSAPLQFRSKEVSKSNVVDDMVQSNPVLYTPGEEPDHCVVIKYVPYVGDSKRALDEYTSELMLGGTNTLVLHNTCEDSLLAAPIMLDLALLTELCQRVSFCTDMDPEPQTFHPVLSLLSFLFKAPLVPPGSPVVNALFRQRSCIENILRACVGLPPQNHMLLEHKMERPGPSLKRVGPVAATYPMLNKKGPVPAATNGCTGDANGHLQ | not soluble
MSSARLVIAGLNGGTGKTILSLGTVRALTNAGHSVKPFKKGPDYIDAEWLGLAAGRAATNLDPFFLDAARLQSLFLHASAGASISIIEGNRGLYDGRDVTGSCSTAELARILDSPVVLAMDCTKMTRTAAAILSGVAAFEPGVKLAGVVLNRTANERHRSMLRQCIEHYTDIPVLGALPRLRDNPIPERHMGLVSDREFAQCAGELDRVAQFVAQHVDVERMAEIARSAQPLASNEPFWPVVAEGDGVRPRIGYVRDAALWFYYEENLEALRQAGADLVELRIIDGDPWPTLDGLYLGGGFPETLASELSACRERLAGIREAALAGLPVYAECGGFMVLGESIVMDGVEYPMSGVFPVQTVFHPKPQGLGYVEAEVVAENPFFPQGMVFRGHEFHYSACRPRDGGAVTHALRLNPGTGMGGGADGLVQANTFAAYTHIFGPAVQGWAERFVRAARGHRDQLNKGTDLSLEHHHHHH | not soluble
MTSGSLQFTVLRAVNPATDAQRESMLREPGFGKYHTDHMVSIDYAEGRGWHNARVIPYGPIELDPSAIVLHYAQEVFEGLKAYRWADGSIVSFRADANAARLRSSARRLAIPELPDAVFIESLRQLIAVDKAWVPGAGGEEALYLRPFIFATEPGLGVRPATQYRYLLIASPAGAYFKGGIAPVSVWVSTEYVRACPGGTGAAKFGGNYAASLLAQAEAAENGCDQVVWLDAVERRYIEEMGGMNIFFVLGSGGSARLVTPELSGSLLPGITRDSLLQLAIDAGFAVEERRIDIDEWQKKAAAGEITEVFACGTAAVITPVARVRHGASEFRIADGQPGEVTMALRDTLTGIQRGTFADTHGWMARLG | soluble
RIVEIPVCYGGEFGPDLEEVAKINQLSPEEVIDIHTNGEYVVYMLGFAPGFPFLGGMSKRIAAPRKSSPRPSIPAGSVGIAGLQTGVYPISTPGGWQLIGKTPLALFRPQENPPTLLRAGDIVKFVRISEKDYHAYKEESN | soluble
